The nature of this data set: yeast display, Sf9 membrane polyspecificity reagent, FACS + sequencing; frameworks hold sequencing errors. In outline: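 After 36–48 hours of galactose induction, yeast (Saccharomyces cerevisiae BJ5465) displaying a synthetic nanobody library were stained at 4 °C for 1 hour with 10% biotinylated, detergent-solubilized Sf9 membrane reagent. Streptavidin microbeads enriched the stained cells before FACS sorting into low and high (top ~1%) gates on anti-HA and streptavidin fluorescence. Each clone's polyreactivity label reflects its gate of origin.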
Turning to “QVQLVESGGGLVQAGGSLRLSCAASGRTFRRYTMGWYRQAPGKERELVATISSGGSTYADSVKGRFTISRDNAKNTVYLQMNSLKPEDTAVYYCAARYDVAWYSKRYSWGQGTQVTVSS”, the “polyreactivity (PSR sort gate)” value is listed as “high polyreactivity”.

In the case of “QVHLVESGGGLVQAGGSLRLSFAASGRIFWDNAMGWYRQAHGKERELVAAISDSVVITYYADSVKGRFTISRDNAKNTVYLQMNSLKPEDTAVYYCAADKRGTVYLSSFWMDYWGQGTQVTVSS”, the “polyreactivity (PSR sort gate)” value was “low polyreactivity”.

With “QVQLVESGGGLVQAGGILRLSCAASGRTFQGNAMGWSRQAPGKERELVAVIDSGTSTDYADSVKGRFTISRDNAKNTVYLQMNSLKPEDTAVYYCAADGALGYNLRYDYWGQGTQVTVSS”, the “polyreactivity (PSR sort gate)” value is reported as “low polyreactivity”. The value for “QVQLVESGGGLVQAGGSLRLSCAASGFTFKYYSMGRYRQAPGKERELVAAISRGGRTNYADSVKGRFTISRDNAKNTVYLQMNSLKPEDTAVYYCAADGIYALFFTSGGIWFDYWGEGTQVTVSS” was “low polyreactivity”; that for “QVQLVESGGGLVQAGGSLRLSCAASGSIYPDYDMGWYRQAPGKERELVAAISSSGDSTYYADSVKGRFTISRDNAKNTVYLQMNSLKPEDTAVYYCAVDGTRSTSNGSEFTGYNYWGQGTHVTVSS” was “low polyreactivity”; that for “QVQLVESGGGLVQAGGSLRLSCAASGFTFEYNAMGWYRQAPGKERELVAVITYRGGSTYYADSVKGRFTISRDHAKNTVYLQMNSLKPEDTAVYYCAARLSSNYWGLKRWGYGYWGQGTQVTVSS” was “high polyreactivity”. In the case of “QVQLVESGGGLVQAGGSLRLSCAASGRTIQTYTMGWYRQAPGKERELDAVITTRGGRTYYADSVKGRFTISRDNAKNTVYLQMNSLKPEDTAVYYCNKGIPTRSVRSYDYWGQGTQVTVSS” it was “high polyreactivity”; in that of “QVQLVESGGGLVQAGGSLRLSCAAYGSIFDANAMGWYRQAPGKEREFLAAINCTGGSTYYAESVKGRFTISRDYAKNTVYLQMNILKPEDTAGYYCAAEWWYQNNPEIYYYWGQGIQVTVSS”, “high polyreactivity”.

As for “QVQLVESGGGLVQAGGSLRLSCAASGRIGRYAMGWYRQAPGKESELVAVITSGDSTYYADSVKGRFTITRDNAKNTVYFQMNSLKPEDTAVYYCAADSYRRWGILFTGNEYDSWGQGTQVTVSS”, the “polyreactivity (PSR sort gate)” value was “low polyreactivity”.

On to “QVQLVESGGGLVQAGGSLRLSCAASGITFRKYAMGWSRQAPGKERELVAAISAGGGRTFYADSVKGRFTISRDNAKNTVYLQMNSLKPEDTAVYYCNADLGIGYDYWGQGTQVTVSS”, for which the “polyreactivity (PSR sort gate)” value is reported as “high polyreactivity”.

“QVQLVESGGGLVQAGGSLRLSFAASGRIFKRNTKRWYRQAPGKETELVAAITYSGITYYADSVKGRFTISRDNAKNTFYLQMNSLKPEDTAVYYCDKVLYPIGSPRFEYWGQGTQVTVSS”: the “polyreactivity (PSR sort gate)” value is on record as “low polyreactivity”.

In the case of “QVQLVESGGGLVQAGGSLRLSCAASGRIFNNNAMGWYRPAPGKERELVASITRRGGRTYYADSVKGRFTISRDNAKNTVYLQMNSLKPEDTAVYYCNALAGPPEFVRNYYWGQGTQVTVSS”, the “polyreactivity (PSR sort gate)” value is “high polyreactivity”.

“QVQLVESGGGLVQAGASLRLSCAASGSIFIYYAMGWYRQAPGKERELVAAISGGGRTNYADSVKGRFTISRDNAKNTVYLQMNSLKPEDTAVYYCAADPVYWYSTMDFWGQGTQVTVSS”: the “polyreactivity (PSR sort gate)” value is “low polyreactivity”. In the case of “KVQLVESGGGLVQAGGSLLLSCAASVSNYTLNAMGWYRQAPGKERVLVAAISLSGGSTYYADSVKGRFTISRDNAKNTVYLQMNSLKPEDTAVYYCNTPPSRYVRYGIYRYDYWGQGTQVTVSS” it was “high polyreactivity”. The value for “QVQLVESGGGLVQAGGSLRLSCAASGSTFYSNVMGWYRQAPGKERELVAAISQSGGRTFYADSVKGRFTISRDNAKNTVYLQMNSLIPEDTAVYYGNYVRAQPRNPYDYWGQGTQVTVSS” was “high polyreactivity”; that for “QGQLVESGGGLVQAGGRLRLSCAASGFTFRHNAMGWYRQAPGKETELVAAISWSDGSTYADSVKGRFTISRDNAKNTVYLQMNSLKPEDTAVYYCNADYPSYRYFTGRDYWGQGTQVTVSS” was “low polyreactivity”; that for “QVQLVESGGRLVQAGGSLRLSCDPSGRTFWYYAMGWYRQAPGKERELVASISLSGSRTNYADSVKGRFTISRDNAKNTVYLQMNSLKPEDTAVYYCAADNFRQFGEYDYWGQGTQVTLSS” was “low polyreactivity”. For the sequence “QVQLVETGGVLVQAGGSLRLSCAASGITFYRYAMGWYRQAPGKERELVATITSGVSTFYADSVKGRFTISRDNAKNTVYLQMKSLKQEDTAVYFCAAESVWNWYYTTAGMDYWGLGTQVTVSS”, the “polyreactivity (PSR sort gate)” value was “high polyreactivity”. In the case of “QVQLVESGGGLVQAGGSLRLSCAASGGTFSYYAMGWYRQAPGKGELVAAISSGGSTNYADSVKGRFTISRDNAKNTVYLQMNSLKPEDTAVYFCAARYRFWGPYNYWGQGTQVTVSS” it was “high polyreactivity”; in that of “QVHLVESGGGLVQAGCCLRLRCAASGRTYDAYAKAWYRQAPGKERELVAAISSGDITNYADSVKGRFTISRDHAKNTVYLQMNSLKPEDTAVYYCAAKPRLRFFLWHEYSSRYDYWGQGTQVTVSS”, “high polyreactivity”. With “QVQLEESGGGLVQAGGSLRLSCPASGRTFSVYAIGSYRPAPGKERELLAGITSGGSTNYADSVKGRFTISRDNAKNTVYLQMISLKPEDTAVYYCAAANVYAGFGFVSIGDYWGQGTQVTVSS”, the “polyreactivity (PSR sort gate)” value is recorded as “low polyreactivity”. For “QVQLEESGGGLVQAGGSHRLSCAASGSIFGPNAMGWSRQAPGKERELVAAISWTGGRTYYADSVKGRFTISRDNAYNTVYLQMNSLKPEDTAVYDCAVKGHPCGQGTQVTVSS”, the “polyreactivity (PSR sort gate)” value is “low polyreactivity”.

“QVQHVESGGGLVQAGGSLRLSCAASGFTFARYAMGWYRHAPGKERELVASISSSGDRTNYADSVKGRFTISRDNAKITVYLQMYSLKPEDTAVYYCNADFGYGWYLRYDYWGQGTQVTVSS”: the “polyreactivity (PSR sort gate)” value was “high polyreactivity”.

As to “QVQLVESGGGLVQAGGSLRLSCAASGITFRFNARVWYRQEPGKEREFVAAITYSGDSTYYADSVKGRFTISRDNAKNTVYLQMNSLKPEDTAVYYCAADYYAISRRIFYYWGQGTQVTVSS”, the “polyreactivity (PSR sort gate)” value is “low polyreactivity”. The value for “QVQLVESGGGLVQAGGSLRLSCAASGFIFSKYAMGWYRQAPGKERELVAAITGGGSTNYADSVKGRFTISRDNAKNTVYLQMTSLKPEDTAVYYCAARGFTLTDYDRDLYYWGQGTQVTVSS” was “low polyreactivity”; that for “QVQLVESGGGLVQAGGSLRLSCAASGRIWVYAMGWYRQAPGKERELVATITYNSGRTYYADSVKGRFTISRDNAKNTVYLQMNSLKPEDTAVYYCNADFWYSYRRGYGYWGQGTQVTVSS” was “high polyreactivity”. For “QVLLVESGGGLVQAGGSLRLSWAASGSIFTIYAMGWYRKAPGQERELVAAMNRGDGTNYADSVKGRFTISRDKAKNTVYLQMKSLKPEDTPVYYCAAEYYTEYQKWFDYWGQGTQVTLSS”, the “polyreactivity (PSR sort gate)” value is reported as “high polyreactivity”. In the case of “QVQLVESGGGLVQAGGSLRLSCASSGNIFRKYAMAWYRQAPGKERELVAITSGTNTYYADSVKGRFTISRDNAKNTVYVQMNSLKPEDSAVYYCNKSGFRSSHKYDYWGQGTQVTVSS” it was “low polyreactivity”.

Turning to “QVQLVDSGGGLVQAGGSLRLSCAASGRIFWHNAMGWYRQAPGKERELVAAITGGGSTYYADSVKGRFTMSRVNAKNTVYLQKNSLIPEDTAVYYCATLGSLRYYWPGYDYWGQGTQVTVSS”, the “polyreactivity (PSR sort gate)” value is “low polyreactivity”.

Turning to “QVQLVESGGGLVQAGGSLRLSCAASGYIFKYYAMGWYRQAPGKERELVAAISRSGDSTYYADSVKGRFTISRDNAKNTVYLQMNSLKPEATAVYYCKARYWHGPTGSDYWGQGTQVTVSS”, the “polyreactivity (PSR sort gate)” value was “high polyreactivity”. As to “QVHLVESGGRLVQAGVSLRLSCAASGRIFSNYAMGWYIQAPGKERELVAAISRGGGRTFYADSVKGRFTISRDNAKNTVYLQMNSLKPEDTAVYYCATRSYYVKGDYWGQGTQVTVSS”, the “polyreactivity (PSR sort gate)” value was “high polyreactivity”. In the case of “QVQLVESGGGLFQAGGSLSLSCAASGRIYNPNALGWYRQAPGKERELVAAITSGDSTNYADSVKGRFTISRDNAKNTVYLEMNSLKPEDTAVYYCAADWTYPYNSWGQGTQVTVSS” it was “low polyreactivity”. In the case of “QVQLVESGGGLVQAGGSLRLSCAASGRTFYNYAMGWYRQAPGKERELVAAITRGGSTYYADSVKGRFTISRDNAKNTVYLQMNSLKPEDTAVYYCNAYYYIPFEGRGYSKLDYWGQGTQVTVSS” it was “high polyreactivity”; in that of “QVKLVESGGGLVQAGGSLRLSCAASARIFAQYDMGWYRQEPGKEREFVAAISGGGSSKYYADSVKGRFTISRDNAKNTGYLQMNSLKPEDTAVYYCAAYGRYPSWYAPGNEYWGQGTQVTVSS”, “low polyreactivity”. The value for “QVQLVESGGGLVQAGGSLRLSCAASGLNFDKNAMGWYRQAPGNERELLAAITRSSGTTYYADSVKGRFTISRDNAKNTVYLQMNSLKPEDTAVYYCAARFIWGYWGVGYYSWGQGTQVTVSS” was “low polyreactivity”; that for “QVQLVESGGGLVQAGGSLRLSCAASGSIFGTNAMGGYRQAPGKETELVADISGSGGTTYYADSVKGRFTISRDNAKNTVDLQMNSLKPEDTAVYYCAAKGRAGYGYTAYANDYGGQGTQVTVSS” was “low polyreactivity”; that for “HVQHVESAVGLVQAGGRLRLSCAASGIIFRGNVMGWYIPAPGKERELVAAISGSGGRTYYADSVKGRFTISRDNAKNTVYLLMNSLKPEDTAVYYCAVSGTRTIWGISYRMYYWGQGTQVTVSS” was “high polyreactivity”. For the sequence “QVQLVESGGGLVQAGGSLRLSCAASGRIFGPYAMGWYRQAPRKERELVASISYSGGSTYYADSVKGRFTISRDNAKNTVYLQMNSLKPEDTAVYYCAKGGYWRGYNYWGQGTQVTVSS”, the “polyreactivity (PSR sort gate)” value is “low polyreactivity”. In the case of “QVQLVESGGGLGQAGGSLRLSCAASGFTIIYYAMGWYRQAPGKERELVAAISRRGGRTYYADSVKGRFTISRDNAKNTVYLQMNSLKPEDTAVYYCAADGSGTSISYRYKHDYWGQGTQVTVSS” it was “high polyreactivity”. The value for “QVQLVESGGGLVQAGGSLRLSCAASGLTFSSNAMGWSRQAPGKERELVAVITNGGSTNYADSVKGRFTISRDNAKNTVYLQMNSLKPEDTAVYYCAKDGGPAQDIGMDYWGQGTQVTVSS” was “low polyreactivity”.

The values are drawn from the nanobody polyreactivity screen of Harvey et al. (2022).
